Data published in patent publication US20140242080A1 (Hoffmann-La Roche, published 2014).

T1: hu-MCSP(D3 domain)-avi-his (human, UniProt Q6UVK1 1582-2224)
T1 construct: Recombinant D3 domain with avi and his tags; also called human MCSP(D3 domain)-avi-his; Human MCSP D3
T1 sequence: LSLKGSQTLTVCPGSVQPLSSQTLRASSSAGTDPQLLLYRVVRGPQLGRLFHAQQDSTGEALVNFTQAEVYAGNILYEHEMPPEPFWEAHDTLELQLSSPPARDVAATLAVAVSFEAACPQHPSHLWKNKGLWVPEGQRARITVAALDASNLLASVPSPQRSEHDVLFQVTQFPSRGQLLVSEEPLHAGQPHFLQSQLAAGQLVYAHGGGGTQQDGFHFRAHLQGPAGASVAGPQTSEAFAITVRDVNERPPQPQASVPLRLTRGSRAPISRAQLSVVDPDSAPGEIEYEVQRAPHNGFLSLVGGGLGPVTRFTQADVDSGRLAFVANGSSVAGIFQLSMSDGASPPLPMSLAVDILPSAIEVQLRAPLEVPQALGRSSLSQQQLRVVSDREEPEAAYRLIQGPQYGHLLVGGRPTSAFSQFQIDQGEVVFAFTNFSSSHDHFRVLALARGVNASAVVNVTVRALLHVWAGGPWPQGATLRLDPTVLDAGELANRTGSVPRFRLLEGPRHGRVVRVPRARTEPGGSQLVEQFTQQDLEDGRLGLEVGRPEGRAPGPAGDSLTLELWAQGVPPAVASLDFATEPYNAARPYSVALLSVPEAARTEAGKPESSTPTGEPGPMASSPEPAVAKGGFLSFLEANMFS

T2: cynomolgus MCSP D3 (cynomolgus, UniProt Q6UVK1 1582-2224 (human entry), limits assumed)
T2 construct: also called Cyno MCSP; cynomolgus homologue
T2 chain: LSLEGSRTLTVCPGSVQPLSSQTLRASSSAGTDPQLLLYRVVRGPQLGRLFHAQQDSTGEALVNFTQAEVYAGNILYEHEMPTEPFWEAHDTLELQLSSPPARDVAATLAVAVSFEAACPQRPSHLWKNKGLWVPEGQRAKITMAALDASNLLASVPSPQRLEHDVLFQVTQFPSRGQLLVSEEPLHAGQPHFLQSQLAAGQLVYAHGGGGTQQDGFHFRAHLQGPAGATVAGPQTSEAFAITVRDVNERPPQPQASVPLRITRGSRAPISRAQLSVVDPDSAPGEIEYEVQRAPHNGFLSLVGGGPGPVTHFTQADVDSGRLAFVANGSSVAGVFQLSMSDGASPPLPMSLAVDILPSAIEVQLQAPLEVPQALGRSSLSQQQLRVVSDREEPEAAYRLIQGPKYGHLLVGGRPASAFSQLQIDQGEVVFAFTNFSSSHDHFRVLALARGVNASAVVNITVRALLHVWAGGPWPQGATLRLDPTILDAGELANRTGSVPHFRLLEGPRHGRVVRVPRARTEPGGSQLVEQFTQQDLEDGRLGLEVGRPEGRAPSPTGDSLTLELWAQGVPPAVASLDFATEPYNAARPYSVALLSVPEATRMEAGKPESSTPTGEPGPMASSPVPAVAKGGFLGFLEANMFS

T3: murine MCSP D3 (murine, UniProt Q8VHY0 1587-2218, limits assumed)
T3 construct: also called recombinant murine MCSP D3
T3 sequence: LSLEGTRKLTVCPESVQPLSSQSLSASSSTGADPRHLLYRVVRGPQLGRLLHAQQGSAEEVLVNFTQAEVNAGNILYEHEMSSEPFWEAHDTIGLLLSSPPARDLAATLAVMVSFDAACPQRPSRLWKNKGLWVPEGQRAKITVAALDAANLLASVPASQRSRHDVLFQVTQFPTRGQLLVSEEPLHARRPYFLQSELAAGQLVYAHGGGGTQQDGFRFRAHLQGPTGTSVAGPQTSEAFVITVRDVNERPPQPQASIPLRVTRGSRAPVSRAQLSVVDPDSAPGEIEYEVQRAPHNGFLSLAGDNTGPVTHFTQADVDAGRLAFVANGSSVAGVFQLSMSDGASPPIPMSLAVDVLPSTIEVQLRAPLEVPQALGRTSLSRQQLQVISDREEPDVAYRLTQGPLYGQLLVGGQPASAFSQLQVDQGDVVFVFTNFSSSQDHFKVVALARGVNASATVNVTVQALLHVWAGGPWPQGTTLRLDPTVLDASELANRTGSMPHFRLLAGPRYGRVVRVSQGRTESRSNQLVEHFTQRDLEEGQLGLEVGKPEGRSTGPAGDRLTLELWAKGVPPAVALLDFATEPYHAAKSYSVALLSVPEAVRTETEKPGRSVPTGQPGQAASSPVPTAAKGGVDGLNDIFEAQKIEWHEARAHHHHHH

T4: muFcγRIV-aviHis-biotin (murine, UniProt A0A0B4J1G0 21-203, Biotinylated at the avi tag (tag not included in the letters))
T4 construct: Captured by anti-Penta His antibody; also called murine FcγRIV; not shown: exact C-terminal limit of the soluble construct
T4 sequence: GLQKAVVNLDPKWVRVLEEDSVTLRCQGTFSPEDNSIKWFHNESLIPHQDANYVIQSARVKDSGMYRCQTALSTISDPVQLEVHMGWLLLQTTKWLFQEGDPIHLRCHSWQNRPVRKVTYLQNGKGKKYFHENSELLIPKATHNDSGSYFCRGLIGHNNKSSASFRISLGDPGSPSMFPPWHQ


Tests used:
[1] = molecular target: T1, hu-MCSP(D3 domain)-avi-his; experiment: SPR Biacore T100, 25 C; t1/2 = ln 2/koff
Procedure: (§1) Capture IgG was coupled to the sensorchip surface by direct immobilization of around 7,500 resonance units (RU) at pH 5.0 using the standard amine coupling kit (Biacore, Freiburg/Germany). […] Since the interaction with murine MCSP (SEQ ID NO: 380) was expected to be weak the concentration range for this antigen was chosen between 3.9 and 500 nM. The dissociation for all interactions was monitored for 120 s. Bulk refractive index differences were corrected for by subtracting the response obtained on a reference flow cell.
(§2) Kinetic constants were derived using the Biacore T200 Evaluation Software (vAA, Biacore AB, Uppsala/Sweden), to fit rate equations for 1:1 Langmuir binding by numerical integration. […] The half-life (t_{1/2}) of the interaction was calculated using following formula: t_{1/2}=ln 2/koff.

cynomolgus MCSP D3 [2] = molecular target: T2, cynomolgus MCSP D3; experiment: SPR Biacore T100, 25 C; t1/2 = ln 2/koff
Procedure: as §1, §2

[3] = molecular target: T5, human CD3ε stalk-Fc (knob)-Avi/CD3δ-stalk-Fc(hole) (human); experiment: SPR Biacore T100, 25 C; t1/2 = ln 2/koff
T5 construct: also called Human CD3ε/CD3δ; recombinant CD3ε/CD3δ
T5 sequence (chain, as listed by the source mutant limits assumed, chain 1 of 2): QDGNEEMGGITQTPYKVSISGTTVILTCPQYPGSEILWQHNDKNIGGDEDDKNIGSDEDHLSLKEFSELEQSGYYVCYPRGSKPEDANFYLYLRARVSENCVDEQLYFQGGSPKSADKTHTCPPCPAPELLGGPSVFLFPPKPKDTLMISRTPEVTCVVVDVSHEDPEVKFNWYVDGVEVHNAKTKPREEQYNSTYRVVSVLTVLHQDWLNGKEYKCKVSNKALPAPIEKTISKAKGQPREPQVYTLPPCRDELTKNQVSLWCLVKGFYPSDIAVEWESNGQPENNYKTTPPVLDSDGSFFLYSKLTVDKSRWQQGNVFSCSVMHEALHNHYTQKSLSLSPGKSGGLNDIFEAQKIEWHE
T5 sequence (chain, as listed by the source mutant limits assumed, chain 2 of 2): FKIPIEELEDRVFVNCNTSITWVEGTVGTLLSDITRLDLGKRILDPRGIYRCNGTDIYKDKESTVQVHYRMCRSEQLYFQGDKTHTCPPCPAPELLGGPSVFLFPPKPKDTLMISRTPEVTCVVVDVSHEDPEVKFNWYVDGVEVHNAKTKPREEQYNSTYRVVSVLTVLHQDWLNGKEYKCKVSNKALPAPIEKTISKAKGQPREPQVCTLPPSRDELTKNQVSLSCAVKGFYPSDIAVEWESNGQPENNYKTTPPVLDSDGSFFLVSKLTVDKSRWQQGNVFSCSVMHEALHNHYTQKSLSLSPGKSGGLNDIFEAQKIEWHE
Procedure: as §1, §2

[4] = molecular target: T1, hu-MCSP(D3 domain)-avi-his; experiment: SPR Biacore T100, 25 C; TCB captured via anti-human Fab, antigen as analyte
Procedure: (§3) Surface plasmon resonance (SPR) experiments were performed on a Biacore T100 at 25° C. with HBS-EP as running buffer (0.01 M HEPES pH 7.4, 0.15 M NaCl, 3 mM EDTA, 0.005% Surfactant P20, Biacore, Freiburg/Germany).
as §1, §2

cynomolgus MCSP D3 [5] = molecular target: T2, cynomolgus MCSP D3; experiment: as above
Procedure: as §3, §1, §2

[6] = molecular target: T5, human CD3ε stalk-Fc …; experiment: as above
Procedure: as §3, §1, §2

murine MCSP D3 = molecular target: T3, murine MCSP D3; experiment: SPR Biacore T100, 25 C; TCB captured via anti-human Fab, antigen as analyte; steady state
Procedure: as §1, §2

muFcγRIV-aviHis-biotin [7] = molecular target: T4, muFcγRIV-aviHis-biotin; experiment: SPR Biacore T100, 25 C; receptor captured via anti-Penta His, construct as analyte; kinetic
Procedure: (§4) For analyzing interaction of different Fc-variants with human FcγRIIIa-V158 and murine FcγRIV direct coupling of around 6,500 resonance units (RU) of the anti-Penta His antibody (Qiagen) is performed on a CM5 chip at pH 5.0 using the standard amine coupling kit (Biacore, Freiburg/Germany). HuFcγRIIIa-V158-K6H6 and muFcγRIV-aviHis-biotin are captured for 60 s at 4 and 10 nM respectively.
(§5) Constructs with different Fc-mutations are passed through the flow cells for 120 s at a concentration of 1000 nM with a flow rate of 30 μl/min. The dissociation is monitored for 220 s. Bulk refractive index differences are corrected for by subtracting the response obtained in a reference flow cell. […] Affinity for human FcγRIIIa-V158 and murine FcγRIV was determined for wild-type Fc using a concentration range from 500-4000 nM.
(§6) The steady state response was used to derive the dissociation constant KD by non-linear curve fitting of the Langmuir binding isotherm. Kinetic constants were derived using the Biacore T100 Evaluation Software (vAA, Biacore AB, Uppsala/Sweden), to fit rate equations for 1:1 Langmuir binding by numerical integration.

HuFcγRIIIa-V158-K6H6 [8] = molecular target: T6, HuFcγRIIIa-V158-K6H6 (human, UniProt P08637 17-208, limits assumed); experiment: SPR Biacore T100, 25 C; receptor captured via anti-Penta His, construct as analyte; steady state
T6 construct: His-tagged recombinant receptor captured by anti-Penta His antibody; also called human FcγRIIIa-V158; human FcγRIIIa
T6 sequence (P08637 17-208 F176V limits assumed): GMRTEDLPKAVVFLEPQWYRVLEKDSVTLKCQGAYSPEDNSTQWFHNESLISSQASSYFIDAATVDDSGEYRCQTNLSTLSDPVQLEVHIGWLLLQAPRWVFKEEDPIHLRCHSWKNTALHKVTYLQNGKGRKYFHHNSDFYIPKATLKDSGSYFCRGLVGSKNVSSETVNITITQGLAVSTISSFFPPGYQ
Procedure: as §4, §5, §6

muFcγRIV-aviHis-biotin [9] = molecular target: T4, muFcγRIV-aviHis-biotin; experiment: as above
Procedure: as §4, §5, §6

HuFcγRIIIa-V158-K6H6 [10] = molecular target: T6, HuFcγRIIIa-V158-K6H6; experiment: SPR Biacore T100, 25 C; receptor captured via anti-Penta His, construct as analyte; kinetic, one concentration (1000 nM)
Procedure: as §4, §5

HuFcγRIIIa-V158-K6H6 [11] = molecular target: T6, HuFcγRIIIa-V158-K6H6; experiment: SPR Biacore T100, 25 C; receptor captured via anti-Penta His, construct as analyte; kinetic, value in brackets not explained
Procedure: as §4, §5, §6

Binder	t1/2 [1] [h]	t1/2 (cynomolgus MCSP D3 [2]) [h]	t1/2 [3] [min]	Kd [4] [nM]	Kd (cynomolgus MCSP D3 [5]) [nM]	Kd [6] [nM]	Kd (murine MCSP D3) [nM]	Kd (muFcγRIV-aviHis-biotin [7]) [nM]	Kd (HuFcγRIIIa-V158-K6H6 [8]) [nM]	Kd (muFcγRIV-aviHis-biotin [9]) [nM]	Kd (HuFcγRIIIa-V158-K6H6 [10]) [nM]	Kd (HuFcγRIIIa-V158-K6H6 [11]) [nM]
MCSP TCB (2+1 Crossfab-IgG P329G LALA inverted) (bispecific antibody, also called MCSP TCB antibody; MCSP CD3 bispecific antibody) light 1: not shown light 2: QAVVTQEPSLTVSPGGTVTLTCGSSTGAVTTSNYANWVQEKPGQAFRGLIGGTNKRAPGTPARFSGSLLGGKAALTLSGAQPEDEAEYYCALWYSNLWVFGGGTKLTVLSSASTKGPSVFPLAPSSKSTSGGTAALGCLVKDYFPEPVTVSWNSGALTSGVHTFPAVLQSSGLYSLSSVVTVPSSSLGTQTYICNVNHKPSNTKVDKKVEPKSC heavy 1: not shown heavy 2: QVQLQESGPGLVKPSQTLSLTCTVSGGSITSGYYWNWIRQHPGKGLEWIGYITFDGSNNYNPSLKSRVTISRDTSKNQFSLKLSSVTAADTAVYYCADFDYWGQGTLVTVSSASTKGPSVFPLAPSSKSTSGGTAALGCLVKDYFPEPVTVSWNSGALTSGVHTFPAVLQSSGLYSLSSVVTVPSSSLGTQTYICNVNHKPSNTKVDKKVEPKSCDKTHTCPPCPAPEAAGGPSVFLFPPKPKDTLMISRTPEVTCVVVDVSHEDPEVKFNWYVDGVEVHNAKTKPREEQYNSTYRVVSVLTVLHQDWLNGKEYKCKVSNKALGAPIEKTISKAKGQPREPQVCTLPPSRDELTKNQVSLSCAVKGFYPSDIAVEWESNGQPENNYKTTPPVLDSDGSFFLVSKLTVDKSRWQQGNVFSCSVMHEALHNHYTQKSLSLSPGK	3.42	4.38	2.9	0.15	0.12	78.7	1570					
“2+1 IgG scFab, wt” (anti-MCSP/anti-huCD3) (bispecific antibody, Wild-type Fc domain; also called Fc-wt; copies: 2 + 1 + 1) chain 1: DIVLTQSPSSLSASLGDRVTISCSASQGIRNYLNWYQQRPDGTVKLLIYYTSSLHSGVPSRFSGSGSGTDYSLTISNLEPEDIATYYCQQYSKLPWTFGGGTKLEIKRTVAAPSVFIFPPSDEQLKSGTASVVCLLNNFYPREAKVQWKVDNALQSGNSQESVTEQDSKDSTYSLSSTLTLSKADYEKHKVYACEVTHQGLSSPVTKSFNRGEC chain 2: not shown chain 3: not shown								576	3470	1500	600	1200
